Four molecules from US20190177419A1 (BERGEN TEKNOLOGIOVERFORING, published 2019) can be followed below.

Assay [1] addresses T1, recombinant human Axl-Fc chimera (R&D Systems, Cat. no. 154-AL) (human, UniProt P30530 26-451).
T1 construct: extracellular domain; Bought reagent; also called rhAxl-Fc; rhAxl; not shown: Fc part (and any linker or tag) of the bought chimera; not described
The assay is described as follows: SPR, Biacore 3000, 25 C, rhAxl-Fc immobilised on CM5 (190 RU); half-life of the complex as ln2/koff. On the procedure:
(§1) The precise kinetic analysis was performed using BIA evaluation software and curve fitting according to 1:1 Langmuir binding model.
In general terms: In SPR one partner is held on a chip, and binding of the other changes the refractive index at the surface.

Assay [2] concerns the target T1, recombinant human Axl-Fc chimera (R&D …). The assay is described as follows: SPR, Biacore 3000, 25 C, rhAxl-Fc immobilised on CM5 (190 RU), antibody injected, 1:1 Langmuir model. On the procedure: as §1
In assay [3] the target is T2, recombinant human Mer-Fc chimera (R&D Systems, Cat. no. 891-MR) (human, UniProt Q12866 21-505).
T2 construct: Bought reagent; also called rhMer-Fc; rhMer; not shown: Fc part (and any linker or tag) of the bought chimera; not described
T2 sequence: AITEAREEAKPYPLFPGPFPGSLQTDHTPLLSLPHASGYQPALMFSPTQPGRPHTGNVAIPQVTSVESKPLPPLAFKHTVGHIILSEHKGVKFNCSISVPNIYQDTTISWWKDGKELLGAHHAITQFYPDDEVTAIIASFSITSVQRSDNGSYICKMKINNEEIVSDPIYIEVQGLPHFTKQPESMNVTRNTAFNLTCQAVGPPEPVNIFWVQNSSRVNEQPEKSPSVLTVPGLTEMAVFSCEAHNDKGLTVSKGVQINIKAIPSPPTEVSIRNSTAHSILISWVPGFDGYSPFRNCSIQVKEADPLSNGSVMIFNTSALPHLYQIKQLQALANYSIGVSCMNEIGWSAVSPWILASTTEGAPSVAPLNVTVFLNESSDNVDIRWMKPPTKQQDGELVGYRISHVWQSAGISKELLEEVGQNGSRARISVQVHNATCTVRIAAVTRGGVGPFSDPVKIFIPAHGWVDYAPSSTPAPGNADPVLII
The assay is described as follows: SPR (Biacore 3000), rhMer-Fc immobilised on a CM5 chip, antibody injected for 3 min [panel 10C9]. Here is the method: (§2) All binding experiments were performed using Biacore 3000 instrument (GE Healthcare) at 25° C. Soluble recombinant antigens corresponding to the extracellular domains of members of the human TAM receptor family, Axl (rhAxl-Fc chimera; R&D Systems, Cat. no. 154-AL), Mer (rhMer-Fc chimera; R&D Systems, Cat. no. 891-MR) and Tyro3 (rhTyro3/Dtk-Fc chimera; R&D Systems, Cat. no. 859-DK) were immobilized on the surface of CM5 sensor chip using amine coupling at the surface density of 393.0, 303.6 and 364.0 resonance units (RU), respectively. The Biacore run was performed in an automatic mode using Binding to analysis wizard.

The target of assay [4] is T3, recombinant mouse Axl-Fc chimera (R&D Systems, Cat. no. 854-AX) (mouse, UniProt Q00993 19-445).
T3 construct: Bought soluble reagent; also called rmAxl-Fc; rmAxl; not shown: Fc part (and any linker or tag) of the bought chimera; not described
T3 sequence (Q00993 other isoform, or with tags, fused parts or gaps mutant): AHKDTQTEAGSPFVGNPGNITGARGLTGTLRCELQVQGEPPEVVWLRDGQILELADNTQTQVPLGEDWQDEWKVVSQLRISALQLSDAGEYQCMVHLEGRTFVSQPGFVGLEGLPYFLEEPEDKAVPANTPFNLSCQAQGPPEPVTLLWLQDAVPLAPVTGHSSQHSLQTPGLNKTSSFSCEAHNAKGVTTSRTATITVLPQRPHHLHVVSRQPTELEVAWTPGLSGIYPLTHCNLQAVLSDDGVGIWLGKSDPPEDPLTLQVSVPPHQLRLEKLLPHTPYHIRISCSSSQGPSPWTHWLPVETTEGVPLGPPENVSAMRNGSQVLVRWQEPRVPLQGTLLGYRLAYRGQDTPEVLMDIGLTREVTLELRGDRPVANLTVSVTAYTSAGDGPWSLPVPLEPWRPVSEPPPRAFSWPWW
The assay is described as follows: SPR (Biacore 3000), rmAxl-Fc immobilised on a CM5 chip, antibody injected for 3 min [panel 10C9]. Here is the method:
(§3) The binding experiments were performed using Biacore 3000 instrument (GE Healthcare) at 25° C. The soluble recombinant antigens corresponding to human Axl (rhAxl-Fc chimera; R&D Systems, Cat. no. 154-AL), mouse Axl (rmAxl-Fc chimera; R&D Systems, R&D Systems; Cat. no. 854-AX) and human Tyro3 (rhTyro3/Dtk-Fc chimera; R&D Systems, Cat. no. 859-DK) were immobilized on the surface of CM5 sensor chip using amine coupling at the surface density of 1,308.0, 2,115.9 and 1,429.0 RU, respectively. The Biacore runs were performed in an automatic mode using Binding analysis wizard.

Assay [5] has as its target T4, recombinant human Tyro3/Dtk-Fc chimera (R&D Systems, Cat. no. 859-DK) (human, UniProt Q06418 41-429).
T4 construct: Bought reagent; also called rhTyro3/Dtk-Fc; rhTyro3; not shown: Fc part (and any linker or tag) of the bought chimera; not described
T4 sequence: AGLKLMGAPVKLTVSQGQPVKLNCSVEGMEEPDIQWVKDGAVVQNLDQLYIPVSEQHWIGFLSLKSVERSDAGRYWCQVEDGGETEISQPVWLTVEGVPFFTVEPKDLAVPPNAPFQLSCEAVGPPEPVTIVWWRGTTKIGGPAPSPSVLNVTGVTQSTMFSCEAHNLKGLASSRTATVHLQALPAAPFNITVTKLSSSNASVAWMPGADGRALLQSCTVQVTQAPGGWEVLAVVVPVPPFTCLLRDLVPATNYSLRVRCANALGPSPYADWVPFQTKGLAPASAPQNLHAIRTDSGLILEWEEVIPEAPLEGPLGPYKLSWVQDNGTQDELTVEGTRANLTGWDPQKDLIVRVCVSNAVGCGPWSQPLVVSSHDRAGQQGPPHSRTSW
The assay is described as follows: SPR (Biacore 3000), rhTyro3/Dtk-Fc immobilised on a CM5 chip, antibody injected for 3 min [panel 10C9]. On the procedure:
as §2

Assay [6] deals with T5, human Axl receptor on cells (Axl-positive MDA-MB-231 cells; HeLa cells; Axl+ cells) (human, UniProt P30530 26-894).
T5 construct: whole, on cells; Endogenous Axl of human cell lines; also called Axl-positive cells
The assay is described as follows: flow cytometry on MDA-MB-231 cells, detection with APC-conjugated donkey anti-mouse IgG (H+L) F(ab')2.

Assay [7] deals with T6, recombinant cyno-Axl-Fc (extracellular domain of cynomolgus monkey Axl fused to human Fc) (cynomolgus monkey (Macaca fascicularis), UniProt P30530 26-451 (human entry)).
T6 construct: also called Axl from cynomolgus monkey; not shown: human Fc
T6 chain: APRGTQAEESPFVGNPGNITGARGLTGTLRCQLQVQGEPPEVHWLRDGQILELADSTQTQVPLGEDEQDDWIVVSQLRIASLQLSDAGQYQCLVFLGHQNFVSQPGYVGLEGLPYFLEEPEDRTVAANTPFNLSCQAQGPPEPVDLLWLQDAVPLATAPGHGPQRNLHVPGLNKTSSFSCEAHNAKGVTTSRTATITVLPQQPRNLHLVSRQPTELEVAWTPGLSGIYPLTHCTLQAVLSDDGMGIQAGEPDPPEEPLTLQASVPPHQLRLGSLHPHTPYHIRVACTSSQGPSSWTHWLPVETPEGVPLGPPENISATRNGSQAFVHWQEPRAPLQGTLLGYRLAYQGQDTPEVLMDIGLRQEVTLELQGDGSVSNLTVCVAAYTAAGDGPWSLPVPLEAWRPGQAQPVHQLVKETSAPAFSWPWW
The assay is described as follows: SPR (Biacore 3000), cyno-Axl-Fc immobilised on a CM5 chip, antibody injected at 10 µg/mL for 3 min, 5 min dissociation [panel 10C9]. On the procedure:
(§4) The sequence of Axl receptor from cynomolgus monkey (Macace fascicularis; SEQ ID NO.43) was retrieved from WO2009062690A1. Based on the sequence, recombinant extracellular domain of cyno-Axl was generated by transient expression in CHO cells as a fusion protein with human Fc. […] The binding experiments were performed using Biacore 3000 instrument (GE Healthcare) at 25° C. […] The Biacore runs were performed in an automatic mode using Binding analysis wizard.

Assay [8] addresses T5, human Axl receptor on cells …. The assay is described as follows: flow cytometry on MDA-MB-231 cells, detection with APC-conjugated donkey anti-human IgG (H+L) F(ab')2. Here is the method:
The cell staining was measured using Accuri C6 flow cytometer (BD Biosciences). MFI, geometric mean fluorescence intensity.
For flow cytometry, the adherent cells in culture were washed with PBS, detached by treatment with trypsin (0.25%) for 1 min and hitting culture dish for full detachment. Trypsin was quenched by adding into the tissue flask the complete medium followed by washing the cells with PBS. During the washing steps, the cells were collected by centrifugation at 200 g for 5 min. The antibody was diluted for total concentration in PBS containing 0.02% bovine serum albumin (BSA). Cell staining was performed using 200 μL of cell suspension comprising 10⁵ cells for 20 min at room temperature. The cell-bound antibodies were detected with APC-conjugated donkey anti-human or anti-mouse, respectively, IgG (H+L) F(ab′)₂ fragments (Jackson ImmunoResearch). After two washing steps with PBS/0.02% BSA, the cells were resuspended in 200 μL and kept on ice before analysis on Accuri C6 flow cytometer (BD Biosciences).
(In general: Flow cytometry measures light scatter and fluorescence of single cells or particles in a stream.)

Assay [9] has as its target T2, recombinant human Mer-Fc chimera (R&D …). The assay is described as follows: SPR (Biacore 3000), rhMer-Fc immobilised on a CM5 chip, antibody injected for 3 min [panel 10G5]. On the procedure: as §2
For assay [10], the target named is T3, recombinant mouse Axl-Fc chimera (R&D …). The assay is described as follows: SPR (Biacore 3000), rmAxl-Fc immobilised on a CM5 chip, antibody injected for 3 min [panel 10G5]. Here is the method: as §3
In assay [11] the target is T4, recombinant human Tyro3/Dtk-Fc chimera …. The assay is described as follows: SPR (Biacore 3000), rhTyro3/Dtk-Fc immobilised on a CM5 chip, antibody injected for 3 min [panel 10G5]. Here is the method:
as §2

Assay [12] concerns the target T6, recombinant cyno-Axl-Fc (extracellular …). The assay is described as follows: SPR (Biacore 3000), cyno-Axl-Fc immobilised on a CM5 chip, antibody injected at 10 µg/mL for 3 min, 5 min dissociation [panel 10G5]. Here is the method: as §4

B1: mouse monoclonal antibody 10C9 (from hybridoma UT-10C9-B9) (antibody, IgG2b, V domains shown)
VH: QVQLQQPGPELVKPGASVKISCKTSDYNFTRYYIHWVKQRPGQGLEWIGWIYPGTGDSKYNEKFKGRATLTADTSSSTAYMQLSSQTSEDSAVYFCARNGNYWYFDVWGAGTAVTVSS
VL: DIVMTQAAPSGPVTPGESVSISCRSSKSLLHSNGNTYLYWFLQRPGQSPQLLIYRMSNLASGVPDRFSGSGSGTAFTLRISRVEAEDVGIYYCMQHREYPFTFGGGTKLEIK
notes: Whole mouse antibody purified from hybridoma supernatant; Possible N-glycosylation site (NFT) in CDR-H1; also called MAb 10C9
Usually Kd stands for the equilibrium constant for the complex coming apart. Usually koff stands for the first-order rate constant of dissociation. Broadly, the kon is a measure of how fast the partners come together. What is called EC50 (read off the curve) is the concentration giving half of the maximal effect. B1: the “Half-life (t1/2)” value in assay [1] worked out at 40 min. In assay [2], the Kd was found to be 0.18 nM. The koff in assay [2] amounted to 0.000289 s⁻¹. Further, the kon in assay [2] amounted to 1.61e+06 M⁻¹ s⁻¹. In addition, the binding result in assay [3] is “no binding (tested: 10 µg/mL)”; in assay [4] it was “no binding (tested: 10 µg/mL)”; in [5], “no binding (tested: 10 µg/mL)”; in assay [7], “binds”. In addition, the concentration for a half-maximal effect (EC50 (read off the curve)) in assay [6] is approximately 0.2 nM.

B2: chimeric (mouse variable/human constant) IgG1 antibody c10C9 (antibody, V domains shown)
VH: B1 VH
VL: B1 VL
notes: 10C9 VH and VL joined in frame to human IgG1 and C-kappa constant domains, made in CHO cells; also called chimeric 10C9; not shown: constant domains of the human IgG1 heavy chain; constant domain of the human light (C-kappa) chain
With B2, in assay [1], the “Half-life (t1/2)” value stood at 52.8 min. In addition, in assay [2], the dissociation constant Kd amounted to 0.102 nM, the koff amounted to 0.000219 s⁻¹ and the association rate constant (kon) turned out to be 2.16e+06 M⁻¹ s⁻¹. Moreover, in assay [8], the “EC50 (read off the curve)” value was approximately 0.2 nM.

B3: mouse monoclonal antibody 10G5 (from hybridoma WR-10G5-E5) (antibody, IgG1, V domains shown)
VH: QVQLQQSGAELVRPGASVKLSCKASGYSFTDFYINWVRQRPGQGLEWIARIFPGGDNTYYNEKFKGKATLTAEESSSTAYIQLSSLTSEDSAVYFCARRGLYYAMDYWGQGISVTVSS
VL: DVLMTQTPLSLPVSLGDQASISCRSSQSLVHSNGIPYLHWYLQKPGQSPKLLIYRVSNRFSGVPDRFSGSGSGTDFTLKISRVEAEDLGVYFCSQGTHVPPTFGGGTKLEIK
notes: Whole mouse antibody purified from hybridoma supernatant; also called MAb 10G5
Consider B3, for which, in assay [1], the “Half-life (t1/2)” value came out at 26.3 min. The dissociation constant (Kd) in assay [2] was 0.53 nM. The off-rate constant (koff) in assay [2] turned out to be 0.000439 s⁻¹. Moreover, the kon in assay [2] was determined as 829000 M⁻¹ s⁻¹. The binding result was “no binding (tested: 10 µg/mL)” in [9], “no binding (tested: 10 µg/mL)” in assay [10], “no binding (tested: 10 µg/mL)” in assay [11] and “binds” in [12].

B4: chimeric (mouse variable/human constant) IgG1 antibody c10G5 (antibody, V domains shown)
VH: B3 VH
VL: B3 VL
notes: 10G5 VH and VL joined in frame to human IgG1 and C-kappa constant domains, made in CHO cells; also called chimeric 10G5; not shown: constant domains of the human IgG1 heavy chain; constant domain of the human light (C-kappa) chain
With B4, the “Half-life (t1/2)” value in [1] worked out at 68.4 min. In [2], the dissociation constant (Kd) turned out to be 0.103 nM, the koff was determined as 0.000169 s⁻¹ and the on-rate constant (kon) came out at 1.64e+06 M⁻¹ s⁻¹. Also, in assay [8], the concentration giving a half-maximal response (EC50 (read off the curve)) was approximately 0.2 nM.
